Laboratory results: publication PMC4394031 (Structure (London, England : 1993), 2015)

Legend:
[1] = biological target: T1, Human Nrp2-b1b2 (Neuropilin-2 domains b1b2, residues 276–595) (human, UniProt O60462 276-595); assay: differential scanning fluorimetry
T1 sequence (looked up): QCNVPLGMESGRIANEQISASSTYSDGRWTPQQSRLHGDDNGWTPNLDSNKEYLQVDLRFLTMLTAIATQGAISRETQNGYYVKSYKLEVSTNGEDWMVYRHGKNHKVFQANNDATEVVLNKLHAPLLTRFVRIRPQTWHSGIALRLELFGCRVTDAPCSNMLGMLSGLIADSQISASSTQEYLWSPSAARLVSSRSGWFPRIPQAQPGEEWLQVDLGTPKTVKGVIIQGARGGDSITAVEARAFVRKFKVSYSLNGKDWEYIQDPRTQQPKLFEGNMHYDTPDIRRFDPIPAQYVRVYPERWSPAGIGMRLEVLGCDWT

[2] = biological target: T1, Human Nrp2-b1b2 (Neuropilin-2 domains …); assay: crystal structure
[3] = biological target: the molecule itself; assay: crystal structure
[4] = biological target: T2, AP-VEGF-C (alkaline phosphatase-tagged VEGF-C, residues 108–223) (UniProt P97953 108-223); assay: plate competition assay with AP-tagged ligand
T2 sequence (looked up): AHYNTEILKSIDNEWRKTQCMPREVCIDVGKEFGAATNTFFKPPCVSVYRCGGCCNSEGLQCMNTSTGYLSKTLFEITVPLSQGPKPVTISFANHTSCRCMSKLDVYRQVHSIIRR

[5] = biological target: T1, Human Nrp2-b1b2 (Neuropilin-2 domains …); assay: plate competition assay with AP-tagged ligand

B1: processed VEGF-C C-terminus peptide (215-RQVHSIIRR-223) (peptide)
peptide: WRQVHSIIRR
- Kd [1]: 199 µM
- Tm of Nrp2-b1b2 with 0.5 mM peptide (48.8°C without) [1]: 50.3 °C

B2: VEGF-C C-terminus (219-SIIRR-223), the C-terminal five amino acids of mature VEGF-C (peptide)
peptide: SIIRR
- binding result [2]: binds

B3: Nrp2-b1b2/VEGF-C fusion (human Nrp2 residues 276–595 with VEGF-C 219-SIIRR-223 fused to its C-terminus) (other)
chain: QCNVPLGMESGRIANEQISASSTYSDGRWTPQQSRLHGDDNGWTPNLDSNKEYLQVDLRFLTMLTAIATQGAISRETQNGYYVKSYKLEVSTNGEDWMVYRHGKNHKVFQANNDATEVVLNKLHAPLLTRFVRIRPQTWHSGIALRLELFGCRVTDAPCSNMLGMLSGLIADSQISASSTQEYLWSPSAARLVSSRSGWFPRIPQAQPGEEWLQVDLGTPKTVKGVIIQGARGGDSITAVEARAFVRKFKVSYSLNGKDWEYIQDPRTQQPKLFEGNMHYDTPDIRRFDPIPAQYVRVYPERWSPAGIGMRLEVLGCDWTSIIRR
- binding result [3]: binds

B4: human Nrp2-b1 (residues 276–430) (domain or fragment, UniProt O60462 276-430, looked up)
chain: QCNVPLGMESGRIANEQISASSTYSDGRWTPQQSRLHGDDNGWTPNLDSNKEYLQVDLRFLTMLTAIATQGAISRETQNGYYVKSYKLEVSTNGEDWMVYRHGKNHKVFQANNDATEVVLNKLHAPLLTRFVRIRPQTWHSGIALRLELFGCRVT
- IC50 [4]: 1500 nM

B5: ATWLPPR, an optimized peptide inhibitor of Nrp (peptide)
peptide: ATWLPPR
- IC50 [5]: 10 µM
